{"source": "paper PMC8040287", "about": "“Characterization of two enzymes from Psychrobacter cryohalolentis that are required for the biosynthesis of an unusual diacetamido-D-sugar” (The Journal of Biological Chemistry, 2021)", "molecules": {"B1": {"name": "Pcryo_0637 (Psychrobacter cryohalolentis K5) (protein)", "chain": "MSKVFAVYGASGCGRSLMPVANEQLRILEGDTDSQIVFIDDALDDNITVNGYTAMNYTKFKSIKNDDKFVLIAIANSSIRQKIADKLVKDGISLWTVQGMTTLIMDEVSIDAGAALSPFVTIAANVTIGKCFHANLYSYVEHDCIIGDYVTFAPRVSCNGNIHIHDHAYIGTGAVIKQGTPDKPLIIGKGAIVGMGAVVTKEVPAGAVVIGNPARLLNK", "notes": "full length; kinetics with N-terminal His tag removed by rTEV; crystals with noncleavable C-terminal tag LEHHHHHH; expressed in E. coli Rosetta2(DE3); trimer; domains Ser 2-Ser 93 and Leu 94-Ala 218"}, "B2": {"name": "Pcryo_0638, PLP-dependent aminotransferase from Psychrobacter cryohalolentis K5T (enzyme)", "chain": "MLNTPFSPWPSFTQIEADAVSRVLLSNQVNYWTGQECRQFETEFAEWADSKYAIAMGNGTLALDVALQALDIGAGDEVIVTPRTFIASISSVVNIGATPVFSDVDEATGNITPESIAAVLTDKTKGIVCVHLAGWPCDMDGIMALADKHNLYVIEDCAQAHGATYKGRSVGSIGHIGAWSFCQDKIMTTGGEGGMVTTNDEQLWRKMWAYKDHGKSYAAVYETDHAPGYRWLHESFGTNWRMTEMQAVLGRIQLKRMPDWTAKRTANAQTILDACAKWEAKGYLSVPRLEESVQFADSTHAYYKLYVYVQSDNLPKEWSRDRIIREINDLGVPCFSGSASEVYLEKAFDNTGLRPENRLPVAKQLGETSLMFLVHPTLTEDEIKQTVQAIDGVFANIHNQ", "notes": "Pcryo_0638, aminotransferase encoded by gene 0638 of Psychrobacter cryohalolentis K5T (ATCC BAA-1226); electron density continuous from Ala 5 to Asn 399; also called protein encoded by the 0638 gene; Pyro_0638; source: E. coli Rosetta2(DE3), purified (Ni-NTA, tag removed with rTEV protease); not shown: polyhistidine tag, N-terminal, cleaved"}}, "key": {"[1]": {"molecular_target": "Pcryo_0637, N-acetyltransferase from Psychrobacter cryohalolentis K5T, C-terminally His-tagged form used for crystallization (Psychrobacter cryohalolentis K5T (ATCC BAA-1226)) (UniProt Q1QD33)", "experiment": "crystal structure; hanging drop, room temperature, 23-26% 2-methyl-2,4-pentanediol, 100 mM HEPES pH 7.5, with CoA or acetyl-CoA and UDP or UDP-sugar ligands (four complexes); space group R3, one subunit in the asymmetric unit, trimer formed about the crystallographic triad; 1.3-1.55 Å"}, "Pcryo_0638": {"molecular_target": "T1, Pcryo_0638 (Psychrobacter cryohalolentis, UniProt Q1QD32)", "T1 construct": "full length; N-terminal His tag removed with rTEV; expressed in E. coli Rosetta2(DE3); dimer; residues Ala 5 to Asn 399 seen in crystal", "T1 sequence (Q1QD32 1-400)": "B2 chain", "experiment": "X-ray crystal structure, […] Å", "type": "binding", "conditions": "pH 8.0"}, "[2]": {"substrate": "CC(=O)N[C@H]1[C@@H](OP(=O)(O)OP(=O)(O)OC[C@H]2O[C@@H](n3ccc(=O)[nH]c3=O)[C@H](O)[C@@H]2O)O[C@H](C)[C@@H](N)[C@@H]1O", "experiment": "discontinuous HPLC assay of acetylated product, Michaelis-Menten fit", "type": "biochemical, Psychrobacter cryohalolentis", "conditions": "50 mM HEPPS pH 8.0, 1.5 mM acetyl-CoA, structure with CoA solved on C-terminally tagged protein", "from_the_text": "(§1) discontinuous HPLC assay of acetylated product, Michaelis-Menten fit on Pcryo_0637"}, "[3]": {"substrate": "CC(=O)SCCNC(=O)CCNC(=O)[C@H](O)C(C)(C)COP(=O)(O)OP(=O)(O)OC[C@H]1O[C@@H](n2cnc3c(N)ncnc32)[C@H](O)[C@@H]1OP(=O)(O)O", "experiment": "discontinuous HPLC assay of acetylated product, Michaelis-Menten fit", "type": "biochemical, Psychrobacter cryohalolentis", "conditions": "50 mM HEPPS pH 8.0, 8 mM UDP-2-acetamido-4-amino-2,4,6-trideoxy-D-glucose, structure with UDP solved on C-terminally tagged protein", "from_the_text": "as §1"}, "purified protein": {"substrate": "CC(=O)N[C@H]1[C@@H](OP(=O)(O)OP(=O)(O)OC[C@H]2O[C@@H](n3ccc(=O)[nH]c3=O)[C@H](O)[C@@H]2O)O[C@H](C)C(=O)[C@@H]1O", "experiment": "purified protein", "type": "biochemical, Psychrobacter cryohalolentis", "conditions": "50 mM HEPPS pH 8.0, 0.5 mM PLP, 40 mM sodium glutamate"}, "[4]": {"molecular_target": "the molecule itself", "experiment": "crystal structure; hanging drop, room temperature, 18-22% PEG 8000, 200 mM tetramethylammonium chloride, 100 mM HEPPS pH 8.0, with 1 mM PLP and 5 mM UDP-2-acetamido-4-amino-2,4,6-trideoxy-D-glucose; space group P1, one dimer in the asymmetric unit; 1.3 Å"}}, "data": [{"molecule": "Pcryo_0637, N-acetyltransferase from Psychrobacter cryohalolentis K5T, C-terminally His-tagged form used for crystallization (from UniProt Q1QD33 1-219) (enzyme)", "values": [{"measurement": "stoichiometry N", "setting": "[1]", "value": 3}]}, {"molecule": "Cc1ncc(COP(=O)(O)O)c(C=O)c1O", "note": "[PLP]", "values": [{"measurement": "X-ray crystal structure, 1.3 Å", "setting": "Pcryo_0638; covalent, external aldimine with the aminosugar product, half-occupancy", "value": "a mixture of the external aldimine and PMP was subsequently built into the electron density"}]}, {"molecule": "Cc1ncc(COP(=O)(O)O)c(CN)c1O", "note": "[PMP]", "values": [{"measurement": "X-ray crystal structure, 1.3 Å", "setting": "Pcryo_0638; half-occupancy beside the external aldimine", "value": "a mixture of the external aldimine and PMP was subsequently built into the electron density"}]}, {"molecule": "B1", "values": [{"measurement": "Km", "setting": "[2]", "value": "620 ± 50", "unit": "µM"}, {"measurement": "kcat", "setting": "[2]", "value": "545 ± 40", "unit": "s⁻¹"}, {"measurement": "kcat/Km", "setting": "[2]", "value": "880000 ± 90000", "unit": "M⁻¹ s⁻¹"}, {"measurement": "Km", "setting": "[3]", "value": "70 ± 8", "unit": "µM"}, {"measurement": "kcat", "setting": "[3]", "value": "1900 ± 200", "unit": "s⁻¹"}, {"measurement": "kcat/Km", "setting": "[3]", "value": "2.7e+07 ± 3e+06", "unit": "M⁻¹ s⁻¹"}]}, {"molecule": "B2", "values": [{"measurement": "Km", "setting": "purified protein", "value": "290 ± 40", "unit": "µM"}, {"measurement": "kcat", "setting": "purified protein", "value": "1.9 ± 0.2", "unit": "s⁻¹"}, {"measurement": "kcat/Km", "setting": "purified protein", "value": "6600 ± 700", "unit": "M⁻¹ s⁻¹"}, {"measurement": "stoichiometry N", "setting": "[4]", "value": 2}]}]}
